From publication PMC7305236

Legend:
[1] = molecular target: kappa opioid receptor (KOR) C-terminally tagged with SmBiT (UniProt P41145)
[2] = molecular target: delta opioid receptor (DOR) C-terminally tagged with SmBiT (UniProt P41143)
[3] = molecular target: ACKR3 C-terminally tagged with SmBiT (human) (UniProt P25106)
mouse ACKR3 (mouse) = mouse ACKR3 (mouse) (UniProt P56485)
[4] = molecular target: mu opioid receptor (MOR) C-terminally tagged with SmBiT (UniProt P35372)
[5] = molecular target: ACKR3 C-terminally tagged with SmBiT (human) (UniProt P25106); remark: listed apart in the source
[6] = molecular target: atypical chemokine receptor ACKR3 (formerly CXCR7) (human) (UniProt P25106)
Chain of atypical chemokine receptor ACKR3 (formerly CXCR7) (human) (P25106 whole entry): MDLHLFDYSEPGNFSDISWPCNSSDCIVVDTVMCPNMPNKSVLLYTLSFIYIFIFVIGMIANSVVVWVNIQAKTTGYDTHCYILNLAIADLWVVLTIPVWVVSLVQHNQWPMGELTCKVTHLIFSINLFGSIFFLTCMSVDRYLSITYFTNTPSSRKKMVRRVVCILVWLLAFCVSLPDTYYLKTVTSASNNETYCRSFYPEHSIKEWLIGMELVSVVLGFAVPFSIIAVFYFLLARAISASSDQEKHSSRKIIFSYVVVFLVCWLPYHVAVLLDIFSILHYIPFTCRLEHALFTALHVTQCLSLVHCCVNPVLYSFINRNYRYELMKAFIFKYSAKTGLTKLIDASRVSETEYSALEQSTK

Chain of ACKR3 C-terminally tagged with SmBiT (human) (P25106 whole entry): as above
Chain of mCXCL12 (P40224 22-93): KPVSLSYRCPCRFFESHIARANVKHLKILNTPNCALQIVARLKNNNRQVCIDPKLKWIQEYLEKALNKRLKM
Chain of mouse ACKR3 (mouse) (P56485 whole entry): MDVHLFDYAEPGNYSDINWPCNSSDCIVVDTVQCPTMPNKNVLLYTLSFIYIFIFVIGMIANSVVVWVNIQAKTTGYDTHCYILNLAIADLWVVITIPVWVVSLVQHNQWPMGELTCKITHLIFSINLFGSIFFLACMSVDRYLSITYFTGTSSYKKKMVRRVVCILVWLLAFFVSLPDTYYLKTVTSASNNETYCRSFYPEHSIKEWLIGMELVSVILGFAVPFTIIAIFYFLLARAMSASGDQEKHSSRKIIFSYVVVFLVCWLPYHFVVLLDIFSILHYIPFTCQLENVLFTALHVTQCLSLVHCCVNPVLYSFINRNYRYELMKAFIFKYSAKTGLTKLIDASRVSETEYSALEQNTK
Chain of CXCL12 (P48061 22-93): as the sequence (P40224 22-93) above, with I18V, L70F counted along it

Substance | β-arrestin-1 recruitment (NanoBiT, U87 cells): EC50 [1] | β-arrestin-1 recruitment (NanoBiT, U87 cells): EC50 [2] | β-arrestin-1 recruitment (NanoBiT, U87 cells): EC50 [3] | β-arrestin-1 recruitment (NanoBiT, U87 cells): EC50 [4] | also measured
Leumorphin (peptide) | 21.4 nM | 3000 nM | 1320 nM |  | 
[Phe1Ψ(CH2-NH)-gly2]nociceptin-(1–13)-NH2 (peptide) |  |  | 2970 nM |  | 
mCXCL12 (from UniProt P40224 22-93) (ligand) |  |  |  |  | Supplementary Table 6: EC50 of β-arrestin-1 recruitment to mACKR3, U87 cells (mouse ACKR3 (mouse)): 3.32 nM
Dynorphin A 2–13 (peptide) |  |  | 6000 nM |  | 
Dynorphin A (peptide) |  | 240 nM | 110 nM | 1500 nM | 
CXCL12 (from UniProt P48061 22-93) (ligand) |  |  |  |  | β-arrestin recruitment to ACKR3 (Fig. 4b): EC50 [5]: 1.2 nM
Dynorphin A 2–17 (peptide) |  |  | 2000 nM |  | 
Nociceptin 1–13 (peptide) |  |  | 10000 nM |  | 
Dynorphin A 1–13 (peptide) | 2.5 nM | 319 nM | 61.9 nM | 2000 nM | 
Big Dynorphin (peptide) | 19.1 nM | 529 nM | 108 nM | 652 nM | 
Adrenorphin (peptide) | 43.5 nM | 157 nM | 56.5 nM | 41.6 nM | 
Endomorphin-2 (peptide) |  |  |  | 231 nM | 
Dynorphin B (peptide) | 10.9 nM | 158 nM | 727 nM | 2000 nM | 
β-endorphin (peptide) |  | 441 nM |  |  | 
adrenorphin-derived peptide yggfmrrv (Daa) |  |  |  |  | Supplementary Table 4: EC50 of β-arrestin-1 recruitment to ACKR3, U87 cells [6]: > 10000 nM
